± gives the uncertainty stated by the source.

Experimental findings from the supplement of paper PMC12042874 are described below.

This data set in a line: amyloid nucleation score (Sup35N fusion, yeast selection) (log enrichment); library NNK2; higher = more nucleation; inactive = no reads after selection. The method, boiled down: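 After 24 hours of induction with 100 μM copper sulfate, psi-negative yeast expressing peptides of 20 random codons fused to Sup35N were grown for 7 days at 30°C on medium lacking adenine and uracil. Input and output plasmid inserts were sequenced with Illumina, and sequences with under 100 input reads were discarded. Scores for nucleation are the DiMSum log enrichment of output over input reads, centred on the mode score of non-aggregating sequences.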
LIFYGSCIFQRFRIGVLSSG displayed an amyloid nucleation score of -0.09 ± 0.65.

Take VVRLSSYNASTPLSVSFRRG: the amyloid nucleation score is -0.171 ± 0.74.

In turn, QLHLTEVLFQS returned an amyloid nucleation score of 0.154 ± 0.22.

Consider ERRTCTRLPNVSRARIR, for which the amyloid nucleation score came to 1.27 ± 0.21.

With YNKNSKFLGRFDCSLFI, the amyloid nucleation score is -1.04 ± 1.1.

Consider SRRFFVCL, for which the amyloid nucleation score entry is “inactive”.

As to KMGLRRFNFCARFEYRTSVA, the amyloid nucleation score was -0.048 ± 0.25.

In turn, LGISLPIEVLSFSLSMARCI had an amyloid nucleation score of -0.408 ± 0.45.

For the substance NCQYFMRGFSVISSTFGMLS, the amyloid nucleation score is -0.395 ± 0.76.

Substance ECRGCAWA yielded an amyloid nucleation score of 3.95 ± 0.046.

Consider HEPNSYHPRVGLIQELWHCG, for which the amyloid nucleation score was found to be 0.473 ± 0.45.

As for SIKGIEVEYQGFRVCYSTVY, the amyloid nucleation score entry was “inactive”.

Substance VSFRHQCWNACNSDSVGEEI gave an amyloid nucleation score of 0.892 ± 0.48.

On to KGVRVQDTNVGIWAGKWGVV, for which the amyloid nucleation score is 0.883 ± 0.29.

As to GNLSVTAILWLMRYECLNLS, the amyloid nucleation score is -0.431 ± 0.64.

Substance LNSFVPVDSRVVTSAEWYAG registered an amyloid nucleation score of 0.889 ± 0.23.

RHYLRRCEEDNCHPKYFVRY displayed an amyloid nucleation score of -0.439 ± 0.76.

As for PRRYLTIPLSFFLHNSIIGI, the amyloid nucleation score entry was “inactive”.

Take CCELAPWFFTI: the amyloid nucleation score turned out to be 0.068 ± 0.32.

LMISCSYICSVVDYHLMGGS: the amyloid nucleation score was 3.55 ± 0.06.

The substance FRNSNLT came in with an amyloid nucleation score of -0.462 ± 0.76.

Turning to GYDFT, the amyloid nucleation score entry is “inactive”.

Substance LIYPANVWFGFYAEAGEVAQ showed an amyloid nucleation score of 4.21 ± 0.044.

In the case of HLVGEKSSKRDSGGRGPRRY, the amyloid nucleation score was -0.32 ± 0.61.

The substance PRMGFNDPARLGG yielded an amyloid nucleation score of -1.34 ± 0.76.

Regarding WNIVVSYNDLFV, the amyloid nucleation score was -1.07 ± 0.76.

Turning to SMIIARILHITCFYRAHRRV, the amyloid nucleation score was -0.721 ± 0.64.

STCFVCFFTYVNSYIVLFT displayed an amyloid nucleation score of 5.63 ± 0.082.

For the substance CPLPIVSFKTLINLNMMYKS, the amyloid nucleation score is -0.269 ± 0.43.

For the substance FFQVPSSNLVSLTDRLYSLG, the amyloid nucleation score was -1.16 ± 0.5.

TCILMLCQECVCTF had an amyloid nucleation score of 9.809 ± 0.051.

For NYHPFLVF, the amyloid nucleation score was -0.909 ± 0.54.

As to RATKYFLSFCSLKFKFCHYF, the amyloid nucleation score is -0.658 ± 0.32.

Substance YWVSCHVALGMALKSVLVPC gave an amyloid nucleation score of 0.009 ± 0.76.

Consider FYNNPDGDRVDVRSCCYYMW, for which the amyloid nucleation score stood at 7.19 ± 0.073.

On to QHVFKVVSVALIMRCYDCGI, for which the amyloid nucleation score was 1.64 ± 0.11.

Substance RKVWLALVIFVCGCFIHYNG displayed an amyloid nucleation score of -0.338 ± 0.64.

VSLLCIFVAYGNWVMNGDDP: the amyloid nucleation score was -0.136 ± 0.62.

As for LFIVSDKTFYKGTGCSDFLV, the amyloid nucleation score is -1.28 ± 1.

In turn, TLDVIGIYLAGVGRFDGKSA registered an amyloid nucleation score of 0.261 ± 0.49.

ILSCWSCRGRINTY yielded an amyloid nucleation score of 1.9 ± 0.14.

NFCLVNLEWMRWSNLTDGLQ gave an amyloid nucleation score of 5.34 ± 0.055.

As to WLIRL, the amyloid nucleation score entry is “inactive”.

With SDSNSCGEFARISYMGKWCE, the amyloid nucleation score was 0.705 ± 0.8.

As to KLALVDIGLVPVIAIMCWMS, the amyloid nucleation score came to 0.877 ± 0.14.

On to RQQIFYSRDVQVNVGGN, for which the amyloid nucleation score entry was “inactive”.

On to FIILYGSGMRLNFQGI, for which the amyloid nucleation score worked out at 0.968 ± 0.23.

With ARRCSFWYIISVQRF, the amyloid nucleation score result was “inactive”.

As for VGPVMINSSSVTQCTGWNRT, the amyloid nucleation score is 3.8 ± 0.091.

The substance YFRHVVAGHLRCCLLVSARD came in with an amyloid nucleation score of 2.7 ± 0.13.

PVDVIHSRFVTGHFD displayed an amyloid nucleation score of -0.853 ± 0.78.

With IGLTALDFMSAFGVHLYGCG, the amyloid nucleation score is 0.215 ± 0.76.

In turn, QWTLVL showed an amyloid nucleation score of -0.599 ± 0.55.

VTGNKEVMKIRCWVAHEESY registered an amyloid nucleation score of 0.436 ± 0.49.

In the case of TFKSNLV, the amyloid nucleation score is 0.092 ± 0.17.

Regarding PADSTMGK, the amyloid nucleation score is -0.856 ± 0.29.

TMGYDSSTVTVFGGSMFLRL returned an amyloid nucleation score of 2.56 ± 0.2.

The substance GALKSMLQVFQEGLLHDWSI showed an amyloid nucleation score of -0.936 ± 0.31.

Regarding MITVFGLVTFVVIVSTESPI, the amyloid nucleation score came out at 3.8 ± 0.075.

Substance FEYPLCKTFEIRKPVFRVWV showed an amyloid nucleation score of -0.089 ± 0.79.

For RKTLLLKTRACPSPLFWLDT, the amyloid nucleation score entry is “inactive”.

LDMSQYYSSRVF: the amyloid nucleation score result is “inactive”.

For the substance VSDLKVAQNCANKVIKLRYR, the amyloid nucleation score came to 5.01 ± 0.072.

RLFRAFNLCYAAIRVGASPQ had an amyloid nucleation score of 0.287 ± 0.26.

Consider PYYCMSYLAPWCPDELRAS, for which the amyloid nucleation score result is “inactive”.

The substance KFGVGSLLTSLGYATRSCYL showed an amyloid nucleation score of -0.771 ± 0.25.

YRSVVDA showed an amyloid nucleation score of 0.077 ± 0.54.

Substance QDMLWVPCNSGYRTQ had an amyloid nucleation score of 0.627 ± 0.47.

IKNVWFQFSCGGPGSLRVGS showed an amyloid nucleation score of 0.318 ± 0.32.

IFNCLFDNGKDVYFGILIDF returned an amyloid nucleation score of 2.85 ± 0.081.

With LVWLKQGGTISMLMTCHLFA, the amyloid nucleation score stood at 0.477 ± 0.52.

As to CARIWLRTWGKIRA, the amyloid nucleation score turned out to be 0.092 ± 1.1.

For the substance IDYLDTCFAVCFVGYTVCPT, the amyloid nucleation score amounted to 0.111 ± 0.5.

On to ELFYDLSQTCQMCF, for which the amyloid nucleation score was -0.759 ± 0.64.

In turn, LRLTRVYSSYRESVKKKI returned an amyloid nucleation score of 0.418 ± 0.21.

For ARDCYEDDHKSKSARTVEHT, the amyloid nucleation score worked out at 0.232 ± 0.31.

With NDSFSFDSRCVVDRFGVAKK, the amyloid nucleation score is -0.612 ± 0.76.

As for GRENWELHIRYVR, the amyloid nucleation score was 4.06 ± 0.063.

RGPTAHTFSARENP yielded an amyloid nucleation score of -0.312 ± 0.45.

With WVIDACLNRPLSERSYYRNK, the amyloid nucleation score is 0.767 ± 0.58.

Turning to FNTSFNSVFPCSYRRFTGDI, the amyloid nucleation score amounted to 1.72 ± 0.097.

Consider FYCIFNFDIFV, for which the amyloid nucleation score was determined as 6.286 ± 0.052.

As for SSLRKRRLVVRNVAKSRMFL, the amyloid nucleation score is 2.14 ± 0.31.

The substance RSLIKSRVIWGRKCSSRFIR displayed an amyloid nucleation score of -0.64 ± 0.32.

SYGDRLALQR registered an amyloid nucleation score of 0.546 ± 0.8.

As for VYRFSAAARLDWIDRVNLCN, the amyloid nucleation score came to 0.868 ± 0.58.

For the substance DIMYPYWMVR, the amyloid nucleation score was -0.667 ± 0.76.

VGTGLIIA displayed an amyloid nucleation score of 1.18 ± 0.47.

Turning to SMVTFDYV, the amyloid nucleation score result is “inactive”.

As to SYVFAPWFLVILPKSISMD, the amyloid nucleation score was found to be 4.58 ± 0.079.

As for FLNMTIRVLAWFVYTI, the amyloid nucleation score result was “inactive”.

IHGFNLSIRKMQKDGSDGQH returned an amyloid nucleation score of 0.635 ± 0.65.

On to YTDIHESL, for which the amyloid nucleation score entry is “inactive”.

HVHCEIGFVRLSTRVGRWFG: the amyloid nucleation score came to 6.64 ± 0.079.

Substance YSLLILAPDFLNRHSSLGCI showed an amyloid nucleation score of -0.226 ± 1.1.

Consider FFCTQRFSVCVLGVHKLESL, for which the amyloid nucleation score amounted to 4.26 ± 0.048.

As to WGCHRLEATVLLCVRVCIDC, the amyloid nucleation score is -0.263 ± 1.1.

The substance RVTKSVKLGPEFMLNHGRLT came in with an amyloid nucleation score of 3.33 ± 0.061.

In turn, LMAKLPAINEYPPF came in with an amyloid nucleation score of -0.04 ± 0.56.

As to SFDLWLCTRRWLGGAWILL, the amyloid nucleation score is -0.029 ± 0.65.

The substance GNAQGSTFYVVPFIQYRVFM returned an amyloid nucleation score of 6.744 ± 0.035.

As to IDRVVSTRSSGFVCGEAFCG, the amyloid nucleation score was -0.365 ± 0.63.

KNNVCSHIPNLGSYYLF: the amyloid nucleation score came to 0.736 ± 0.8.

RWYILILGFRGKIIYPFRLG: the amyloid nucleation score was 0.157 ± 1.

LLYEPFVWVYKHRYVVTGYS registered an amyloid nucleation score of -1.76 ± 0.76.

In turn, TKFVWDQNLVSSLINCGQSL gave an amyloid nucleation score of -0.841 ± 1.1.

For VMIMVEVNPWGRCGRRRERS, the amyloid nucleation score was 9.613 ± 0.052.

In the case of VRGSNV, the amyloid nucleation score was -0.637 ± 0.33.

Take LLSSSTIIHLRMCMIHGSFW: the amyloid nucleation score was determined as 0.791 ± 0.67.

Regarding KRTTLWTARSRLCERTLNCS, the amyloid nucleation score is 0.324 ± 0.24.

For the substance EGVKLECVLYVYDHSARRLL, the amyloid nucleation score result was “inactive”.

On to TSVGYMMLSNW, for which the amyloid nucleation score amounted to 4.88 ± 0.095.

For the substance GVCNYPPCPGMMKGKTSLGN, the amyloid nucleation score was 1.32 ± 0.26.

GIWNLQYRREV showed an amyloid nucleation score of 0.596 ± 0.32.

As to VMVFVCVAYEYEFSPIRGPE, the amyloid nucleation score result was “inactive”.

With KLSSRYIYLYSRYEPSS, the amyloid nucleation score entry was “inactive”.

As to GDSIDARGRVQAPQSKEGLR, the amyloid nucleation score was 1.12 ± 0.42.

The substance NVIVFRMGCRILNWGAQYGR registered an amyloid nucleation score of 6.44 ± 0.082.

On to IFCNTLCQIGFRRNVKASGN, for which the amyloid nucleation score was -0.104 ± 0.5.

For GLNQSSLCNGEMGYCRIIWR, the amyloid nucleation score is -1.03 ± 1.1.

The substance ASVLWHFLPSGGARFVCSER gave an amyloid nucleation score of 0.538 ± 0.5.

In turn, RCMLKSIRLLSSVGRLHYRW showed an amyloid nucleation score of 0.742 ± 0.48.

With TLPCFRVFYVTFQYSNHLLS, the amyloid nucleation score was found to be 8.55 ± 0.042.

In the case of CYHSQNDCHKVTWCFPYLAH, the amyloid nucleation score was -0.449 ± 0.44.

Substance EKVGS had an amyloid nucleation score of -0.097 ± 1.1.

Substance WIMVI gave an amyloid nucleation score of -0.124 ± 0.26.

ISFRFLAFCFFYDKVSLEQK: the amyloid nucleation score result was “inactive”.

TWGYGRDVCVRSERSGWYLS returned an amyloid nucleation score of 0.859 ± 0.28.

Substance DTLFLTCPSLHH gave an amyloid nucleation score of 0.811 ± 0.58.

With SRNNCRCD, the amyloid nucleation score was -1.17 ± 1.1.

The substance IWRAQTSWSSSMFTWAVGLR registered an amyloid nucleation score of 1.4 ± 0.33.

With LRTISCIITLVGWITASTKH, the amyloid nucleation score came to 0.124 ± 0.62.

As to RLLAIRIVILYSINCVLSLW, the amyloid nucleation score worked out at 0.129 ± 0.42.

On to HIEFDRWAPHLVDLPTGPMK, for which the amyloid nucleation score result is “inactive”.

LDMRSRLHFDDCTRRGYLGM returned an amyloid nucleation score of -0.166 ± 0.65.

As to DSWNRYNPFCPWKSYVTDSH, the amyloid nucleation score was -0.926 ± 0.76.

Take STEQLLQVHNTHGRPWSRLS: the amyloid nucleation score turned out to be 1.32 ± 0.32.

VGTLNGFRRFGRSGKFNILE yielded an amyloid nucleation score of -0.195 ± 0.27.
